# Results published in US20160228506A1, “Compositions and Formulations for Prevention and Reduction of Tumorigenesis, Cancer Cell Proliferation and Invasion, and Methods of Production and Use Thereof in Cancer Treatment” (PRONUTRIA, INC., priority 2013, published 2016).
# B1: SEQID-00354: nutritive polypeptide (protein)
# chain: MSLSNKLTLDKLDVKGKRVVMRVDFNVPMKNNQITNNQRIKAAVPSIKYCLDSGAKSVVLMSHLGRPDGVPMPDKYSLQPVAVELKSLLGKDVLFLKDCVGPEVEKACADPAAGSVILLENLRFHVEEEGKGKDASGNKVKAEPTKIEAFRASLSKLGDVYVNDAFGTAHRAHSSMVGVNLPKKAGGFLMKKELNYFAKALESPERPFLAILGGAKVADKIQLISNMLDKVNEMIIGGGMAFTFLKVLNNMEIGTSLFDEEGSKIVKDLMSKADKNGVKITLPVDFVTADKFDENAKTGQATVASGIPVGWMGLDCGPESSKKYAEAVARAKQIVWNGPVGVFEWEAFARGTKALMDEVVKATSRGCITIIGGGDTATCCAKWNTEDKVSHVSTGGGASLELLEGKVLPGVDALSSV
# modifications: Ovis aries
# B2: SEQID-00359: nutritive polypeptide naturally produced in Sheep, recombinantly expressed in E. coli (protein)
# chain: MLELGSQRNRAKNNHIGDLMSQSFESLGISEQRARHLETLGFTEPTPVQIQAIPEMLSGRDVVGMAQTGTGKTAAFSLPILEQIDVHAAGIQALVLTPTRELAMQVKEAIRTFSDDNALYVLTVYGGQSIDRQIQRLRRGVQVVVGTPGRILDLLNRGELKLDLLRWLVLDEADEMLSMGFIQDVEKILESADSEHRQTAFFSATMDASISKLVRRHLKSPVTVKVETPKATPKRIEQSVYMVPRGWSKARALEPILELEDPESAIIFVRTKQSAADLTNQLQAAGHSVDEYHGNLNQSQRERLLMRLRRRQVRWIVATDIAARGLDVDHLTHVINYDLPDQVDSYVHRIGRTGRAGREGKAITLIQPIDRRKLRNIERHLRQTLSIQSIPKRAEIEARYIDRLKDRVRDALAGERMASFLPIVSQLSEEYDPHAIAAAALQLAYDQTRPASIGRDDYEDDDDAVSNKPKLIKRRRPASVSNNS
# modifications: Arthrospira platensis NIES-39
# B3: SEQID-00356: nutritive polypeptide (protein)
# chain: MATAAEKLSALKSAVAGLNEISENEKNGFISLVGRYLSGEAQHVEWSKIQTPTDEVVVPYDTLAPTPEGSSEVKNLLDKLVVLKLNGGLGTTMGCTGPKSVIEVRDGLTFLDLIVIQIENLNSKYGSNVPLLLMNSFNTHDDTQKIVEKYQNSNIEIHTFNQSQYPRLVVEDFLPLPSKGHTDKDGWYPPGHGDVFPSLLNSGKLDALLSQGKEYVFVANSDNLGAIVDLKILNHLIQNKNEYCMEVTPKTLADVKGGTLISYEGRVQLLEIAQVPDEHVNEFKSIEKFKIFNTNNLWVNLNAVKRLVEADALKMEIIPNPKEVDGIKVLQLETAAGAAIRFFDKAIGINVPRSRFLPVKATSDLLLVQSDLYTLEDGFVIRNKARENPENPSIELGPEFKKVSNFLGRFKSIPSIVELDSLKVAGDVWFGAGVILKGKVSIVSKPGVKLEVPDGVAIVDKEINGPEDL
# modifications: Glycine max
# B4: SEQID-00420: nutritive polypeptide (protein)
# chain: AAAPLEKRSCTFTSASAAKSGKSSCSTITLDNIAVPAGETLDLTGLKKGTTVIFEGETTFGYKEWKGPLISMSGTDITVKQASGAKINCDGARWWDGKGSNGGKTKPKFFQAHKLDQSSITGLKVYNTPVQGFSILADHLTITDVTIDNSAGTSKGHNTDAFDIGQSTYITIDGATVYNQDDCLAINSGEHITFTNGYCDGGHGLSIGSIGGRSDNTVNDVTISNSKVLNSQNGVRIKTIYGKTGTVENVKFEDITLSDISKYGIVVEQDYENGSPTGTPTNGVKVEDITFKKVTGSVKSSGTDIYILCGSGSCSNWTWSGVDVTGGKKSSKCKNVPSGASCSD
# modifications: Aspergillus niger; source: /note="strain CBS 513.88 / FGSC A1513"
# B5: SEQID-00001 (HEK293): nutritive polypeptide (protein, listed as Gallus gallus)
# chain: MGSIGAASMEFCFDVFKELKVHHANENIFYCPIAIMSALAMVYLGAKDSTRTQINKVVRFDKLPGFGDSIEAQCGTSVNVHSSLRDILNQITKPNDVYSFSLASRLYAEERYPILPEYLQCVKELYRGGLEPINFQTAADQARELINSWVESQTNGIIRNVLQPSSVDSQTAMVLVNAIVFKGLWEKAFKDEDTQAMPFRVTEQESKPVQMMYQIGLFRVASMASEKMKILELPFASGTMSMLVLLPDEVSGLEQLESIINFEKLTEWTSSNVMEERKIKVYLPRMKMEEKYNLTSVLMAMGITDVFSSSANLSGISSAESLKISQAVHAAHAEINEAGREVVGSAEAGVDAASVSEEFRADHPFLFCIKHIATNAVLFFGRCVSP
# modifications: expressed in HEK293
# B6: SEQID-00357: nutritive polypeptide (protein)
# chain: MKPLNRRTKIVATIGPASNSREVLYQMIQAGMNVVRLNFSHGSHEQHTKTVALLKEISQELKTSITLLQDLQGPKIRVGQLPDGGIQLMAGEYITLVPIDQYESKPNTIAIDYLHLGEEAEIGAQVLLDDGLLELKVEEISGNQVKCKIIEGGTLKSRKGVNLPSLTLRLPSLTEKDQQDLEFGISLGVDWVSLSFVRNAEDVRVLKDFLASKNASQISVMAKIEKPQAIANLEEIISECNGLMVARGDLGVEMSPERVPLLQKQIIRLCNQKGIPVITATQMLDSMINNPRPTRAEASDVANAIIDGTDAVMLSGESAVGKYPIRAVEMLAKIAEDVEPEINFINYPPAFNDETHAISEAINTIDKIIDLHCIIAYTCSGYTGQLAAAERPKAPVVALTPNPKVYHRLNLVWGVKPLLLEQEVESFEELINQAQTYLLVRQMASPGDKILIIGGIPSGKAKGTNFIKIHTIG
# modifications: Arthrospira platensis NIES-39
# B7: SEQID-00407 (BS): α-amylase in Bacillus subtilis; Wild-type of Tables E37A and E38E (protein, listed as Bacillus subtilis)
# chain: ETANKSNELTAPSIKSGTILHAWNWSFNTLKHNMKDIHDAGYTAIQTSPINQVKEGNQGDKSMSNWYWLYQPTSYQIGNRYLGTEQEFKEMCAAAEEYGIKVIVDAVINHTTSDYAAISNEVKSIPNWTHGNTQIKNWSDRWDVTQNSLLGLYDWNTQNTQVQSYLKRFLDRALNDGADGFRFDAAKHIELPDDGSYGSQFWPNITNTSAEFQYGEILQDSASRDAAYANYMDVTASNYGHSIRSALKNRNLGVSNISHYASDVSADKLVTWVESHDTYANDDEESTWMSDDDIRLGWAVIASRSGSTPLFFSRPEGGGNGVRFPGKSQIGDRGSALFEDQAITAVNRFHNVMAGQPEELSNPNGNNQIFMNQRGSHGVVLANAGSSSVSINTATKLPDGRYDNKAGAGSFQVNDGKLTGTINARSVAVLYPDDIAKAPHVFLENYKTGVTHSFNDQLTITLRADANTTKAVYQINNGPETAFKDGDQFTIGKGDPFGKTYTIMLKGTNSDGVTRTEKYSFVKRDPASAKTIGYQNPNHWSQVNAYIYKHDGSRVIELTGSWPGKPMTKNADGIYTLTLPADTDTTNAKVIFNNGSAQVPGQNQPGFDYVLNGLYNDSGLSGSLPH
# modifications: source: /note="strain 168"
# B8: SEQID-00672 (BS): nutritive polypeptide (protein, listed as Saccharomyces cerevisiae)
# chain: MSSSESIRMVLIGPPGAGKGTQAPNLQERFHAAHLATGDMLRSQIAKGTQLGLEAKKIMDQGGLVSDDIMVNMIKDELTNNPACKNGFILDGFPRTIPQAEKLDQMLKEQGTPLEKAIELKVDDELLVARITGRLIHPASGRSYHKIFNPPKEDMKDDVTGEALVQRSDDNADALKKRLAAYHAQTEPIVDFYKKTGIWAGVDASQPPATVWADILNKLGKD
# modifications: source: /note="strain ATCC 204508 / S288c"
# B9: SEQID-00346: nutritive polypeptide (protein)
# chain: MYYDADANLDLLAGKTIAIVGYGSQGHAHALNLKDSGMNVIVGLYPGSKSATKAKDAGLTVYPVDEAAKIADLIMILLPDEVQKTVYKNEIEPNLSEGKTLAFAHGFNIHFGQVVPPENVDVIMVAPKGPGHLVRRTYQEGQGVPCLFAVYQDASGQARDRAMAYAKGIGGTRGGILETTFREETETDLFGEQAVLCGGLSALIKAGFETLVEAGYQPELAYFECLHEVKLIVDLVVEGGLAQMRDSISNTAEYGDYTRGPRVITDATRAEMRKILKEIQTGQFAREFVLENQSGKAGFTAMRRQEAEHPIEEVGHDLRAMFSWLKKKA
# modifications: Arthrospira platensis NIES-39
# B10: SEQID-00363 (E. coli): SEQID-00363 expressed recombinantly in E. coli (protein)
# chain: ATLDSWLSNEATVARTAILNNIGADGAWVSGADSGIVVASPSTDNPDYFYTWTRDSGLVLKTLVDLFRNGDTSLLSTIENYISAQAIVQGISNPSGDLSSGAGLGEPKFNVDETAYTGSWGRPQRDGPALRATAMIGFGQWLLDNGYTSTATDIVWPLVRNDLSYVAQYWNQTGYDLWEEVNGSSFFTIAVQHRALVEGSAFATAVGSSCSWCDSQAPEILCYLQSFWTGSFILANFDSSRSGKDANTLLGSIHTFDPEAACDDSTFQPCSPRALANHKEVVDSFRSIYTLNDGLSDSEAVAVGRYPEDTYYNGNPWFLCTLAAAEQLYDALYQWDKQGSLEVTDVSLDFFKALYSDAATGTYSSSSSTYSSIVDAVKTFADGFVSIVETHAASNGSMSEQYDKSDGEQLSARDLTWSYAALLTANNRRNSVVPASWGETSASSVPGTCAATSAIGTYSSVTVTSWPSIVATGGTTTTATPTGSGSVTSTSKTTATASKTSTSTSSTSCTTPTAVAVTFDLTATTTYGENIYLVGSISQLGDWETSDGIALSADKYTSSDPLWYVTVTLPAGESFEYKFIRIESDDSVEWESDPNREYTVPQACGTSTATVTDTWR
# modifications: Aspergillus niger
# B11: SEQID-00418: nutritive polypeptide (protein)
# chain: VPRVRRQGASSSFDYKSQIVRGVNLGGWLVTEPWITPSLYDSTGGGAVDEWTLCQILGKDEAQAKLSSHWSSFITQSDFDRMAQAGLNHVRIPIGYWAVAPIDGEPYVSGQIDYLDQAVTWARAAGLKVLVDLHGAPGSQNGFDNSGHRGPIQWQQGDTVNQTMTAFDALARRYAQSDTVTAIEAVNEPNIPGGVNEDGLKNYYYGALADVQRLNPSTTLFMSDGFQPVESWNGFMQGSNVVMDTHHYQVFDTGLLSMSIDDHVKTACSLATQHTMQSDKPVVVGEWTGALTDCAKYLNGVGNAARYDGTYMSTTKYGDCTGKSTGSVADFSADEKANTRRYIEAQLEAYEMKSGWLFWTWKTEGAPGWDMQDLLANQLFPTSPTDRQYPHQCS
# modifications: Aspergillus niger; source: /note="strain CBS 513.88 / FGSC A1513"
# B12: SEQID-00418 (E. coli): nutritive polypeptide (protein)
# chain: B11 chain
# modifications: Aspergillus niger; source: /note="strain CBS 513.88 / FGSC A1513"
# Experiment: Intact half-life during simulated gastric fluid (SGF) digestion
# Details: SGF pH 1.5, pepsin:polypeptide 1:20 w/w, 37° C.; intact protein
row,Molecule,SGF Half-life (t½)
1,B1,12 s
2,B2,12 s
3,B3,12 s
4,B4,72 s
5,B5,516 s
6,B6,12 s
7,B7,12 s
8,B8,18 s
9,B9,12 s
10,B10,<600 s
11,B11,12 s
12,B12,30 s
